In patent US20230103584A1 (BLACK BELT THERAPEUTICS, published 2023):
Changes are numbered by the printed parent chain. Values belong to the molecule of their own block, whether it stands above or below them.

Columns and labels:
[1] = target: Recombinant, Histidine-tagged extracellular domain of human CD38 (human) (UniProt P28907); assay: ForteBio BLI
[2] = target: T1, Human CD38 expressed on cells (Daudi, Raji, Jurkat, human PBMC/T cells, Tregs, HEK-293T transfectants) (human, UniProt P28907 1-300); assay: cell-based or functional assay
T1 sequence: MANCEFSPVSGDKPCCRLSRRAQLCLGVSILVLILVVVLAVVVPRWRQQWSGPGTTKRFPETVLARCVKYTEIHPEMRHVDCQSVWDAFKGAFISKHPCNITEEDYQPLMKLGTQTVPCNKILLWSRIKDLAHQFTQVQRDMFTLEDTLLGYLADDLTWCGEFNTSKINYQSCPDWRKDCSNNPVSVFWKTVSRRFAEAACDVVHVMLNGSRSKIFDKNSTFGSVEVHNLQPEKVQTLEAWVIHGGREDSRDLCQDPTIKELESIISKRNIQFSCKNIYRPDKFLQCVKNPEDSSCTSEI

[3] = target: T1, Human CD38 expressed on cells (Daudi, …); assay: cell-based or functional assay; remark: listed apart in the source
[4] = target: T1, Human CD38 expressed on cells (Daudi, …); assay: cell-based or functional assay; remark: listed apart in the source
[5] = target: T1, Human CD38 expressed on cells (Daudi, …); assay: cell-based or functional assay; remark: listed apart in the source
[6] = target: T2, Cynomolgus monkey CD38 expressed on T cells / PBMC (Cynomolgus monkey, UniProt Q5VAN0 1-301); assay: flow cytometry on cynomolgus cells, gated on CD4-positive cells, secondary antibody staining
T2 construct: whole, on cells; also called cyno T cells; cynomolgus pan T cells
T2 sequence (looked up): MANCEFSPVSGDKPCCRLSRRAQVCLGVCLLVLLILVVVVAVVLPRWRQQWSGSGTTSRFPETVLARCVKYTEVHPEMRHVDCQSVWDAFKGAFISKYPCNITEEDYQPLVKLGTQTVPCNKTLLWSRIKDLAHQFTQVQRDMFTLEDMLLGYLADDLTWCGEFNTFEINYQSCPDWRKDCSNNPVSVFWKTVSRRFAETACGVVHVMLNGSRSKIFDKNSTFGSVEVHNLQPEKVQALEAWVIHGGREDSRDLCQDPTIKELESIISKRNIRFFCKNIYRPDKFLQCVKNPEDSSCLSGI

[7] = target: T2, Cynomolgus monkey CD38 expressed on T …; assay: flow cytometry on cynomolgus cells, gated on CD8-positive cells, secondary antibody staining

Kd [1]: 9 nM
Molecule: IB4, reference monoclonal agonistic mouse anti-human CD38 antibody

ADCC EC50, target Daudi cells (experiment 6) [2]: 0.00032 µg/mL
ADCC EC50, target Daudi cells (experiment 7) [2]: 0.0008 µg/mL
ADCC EC50, target Daudi cells (experiment 8) [2]: 0.00042 µg/mL
ADCC Max. % lysis [3]: 44%
CDC EC50, 10% complement, target Daudi cells (experiment 15) [4]: 0.17 µg/mL
CDC EC50, 10% complement, target Daudi cells (experiment 16) [4]: 0.34 µg/mL
CDC EC50, 10% complement, target Daudi cells (experiment 17) [4]: 0.26 µg/mL
CDC EC50, 10% complement, target Raji cells [5]: 0.3 µg/mL
CDC EC50, 10% complement, target Raji cells (repeat) [5]: 0.17 µg/mL
EC50 (read off the curve) [6]: ~0.9 µg/mL
EC50 (read off the curve) [7]: ~0.9 µg/mL
B1: aCD38-b-348 (human IgG1) (antibody, V domains shown)
VH: QLQLQESGPGLVKPSETLSLTCTVSGGSISSSDYYWGWIRQPPGKGLEWIGSIYYSGSTYYNPSLKSRVTISVDTSKNQFSLKLSSVTAADTAVYYCARGQYSSGWYAYPFDMWGQGTMVTVSS
VL: EIVLTQSPGTLSLSPGERATLSCRASQSVRSSYLAWYQQKPGQAPRLLIYGASSRATGIPDRFSGSGSGTDFTLTISRLEPEDFAVYYCQQDGNVYTFGGGTKVEIK
notes: First made as IgG in yeast

ADCC Max. % lysis [3]: 38%
B2: aCD38-b-348-m1 (antibody, IgG1, V domains shown)
VH: B1 VH
VL: B1 VL with D92E, G93A

ADCC Max. % lysis [3]: 38%
B3: aCD38-b-348-m4 (antibody, IgG1, V domains shown)
VH: B1 VH
VL: B1 VL with D92E

ADCC Max. % lysis [3]: 44%
B4: aCD38-b-348-m2 (antibody, IgG1, V domains shown)
VH: B1 VH
VL: B1 VL with G93S

ADCC Max. % lysis [3]: 39%
B5: aCD38-b-348-m3 (antibody, IgG1, V domains shown)
VH: B1 VH
VL: B1 VL with G93A
